Patent publication US20090029376
Numbering of substitutions follows the chain as printed.

Legend:
Test in all cases: cleavage_in_vitro
Settings in all cases: NEB4, 37 C
[1] = tested on: T1, SphI (Streptomyces phaeochromogenes)
T1 sequence: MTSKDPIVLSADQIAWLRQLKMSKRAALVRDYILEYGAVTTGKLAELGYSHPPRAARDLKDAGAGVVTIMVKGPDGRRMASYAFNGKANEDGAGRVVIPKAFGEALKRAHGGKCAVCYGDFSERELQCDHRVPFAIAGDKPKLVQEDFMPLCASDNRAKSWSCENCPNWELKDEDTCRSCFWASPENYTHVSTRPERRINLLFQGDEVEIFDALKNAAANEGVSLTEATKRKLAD

[2] = tested on: T2, NcoI (Nocardia corallina)
T2 sequence: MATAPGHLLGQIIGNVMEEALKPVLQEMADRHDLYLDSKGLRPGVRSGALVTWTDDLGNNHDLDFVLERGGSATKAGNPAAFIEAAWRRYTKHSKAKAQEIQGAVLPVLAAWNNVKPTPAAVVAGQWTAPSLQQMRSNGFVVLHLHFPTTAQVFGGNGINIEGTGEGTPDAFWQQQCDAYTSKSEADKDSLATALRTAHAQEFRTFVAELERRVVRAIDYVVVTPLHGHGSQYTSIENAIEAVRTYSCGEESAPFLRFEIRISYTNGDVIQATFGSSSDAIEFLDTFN

[3] = tested on: T3, SapI (Saccharopolyspora sp.)
T3 sequence: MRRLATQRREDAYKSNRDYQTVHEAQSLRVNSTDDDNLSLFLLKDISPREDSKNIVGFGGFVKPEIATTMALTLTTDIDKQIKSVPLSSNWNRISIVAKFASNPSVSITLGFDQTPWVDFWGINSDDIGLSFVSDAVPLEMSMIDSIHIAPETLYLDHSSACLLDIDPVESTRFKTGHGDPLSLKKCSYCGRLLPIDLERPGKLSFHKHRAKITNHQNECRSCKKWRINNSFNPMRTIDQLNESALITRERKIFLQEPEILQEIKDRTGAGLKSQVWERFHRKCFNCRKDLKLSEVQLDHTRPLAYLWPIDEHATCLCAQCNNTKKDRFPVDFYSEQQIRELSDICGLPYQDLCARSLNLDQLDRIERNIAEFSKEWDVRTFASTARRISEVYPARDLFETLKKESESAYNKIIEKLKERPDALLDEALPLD

[4] = tested on: T4, SbfI-HF K251A (Streptomyces species Bf-6)
T4 sequence: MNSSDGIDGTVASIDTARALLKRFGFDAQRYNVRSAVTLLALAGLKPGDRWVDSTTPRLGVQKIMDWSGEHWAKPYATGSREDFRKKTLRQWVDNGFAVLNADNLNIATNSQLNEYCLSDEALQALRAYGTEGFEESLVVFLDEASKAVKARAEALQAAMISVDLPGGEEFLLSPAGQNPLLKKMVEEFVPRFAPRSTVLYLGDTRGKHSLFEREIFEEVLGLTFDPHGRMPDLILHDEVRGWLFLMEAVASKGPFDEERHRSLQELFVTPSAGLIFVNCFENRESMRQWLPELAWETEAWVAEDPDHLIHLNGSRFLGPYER

[5] = tested on: T5, NcoI-HF A2T/R31A (Nocardia corallina)
T5 sequence: T2 sequence with A2T, R31A

[6] = target: T6, HpaI (Haemophilus parainfluenzae) (UniProt P29537)
T6 sequence: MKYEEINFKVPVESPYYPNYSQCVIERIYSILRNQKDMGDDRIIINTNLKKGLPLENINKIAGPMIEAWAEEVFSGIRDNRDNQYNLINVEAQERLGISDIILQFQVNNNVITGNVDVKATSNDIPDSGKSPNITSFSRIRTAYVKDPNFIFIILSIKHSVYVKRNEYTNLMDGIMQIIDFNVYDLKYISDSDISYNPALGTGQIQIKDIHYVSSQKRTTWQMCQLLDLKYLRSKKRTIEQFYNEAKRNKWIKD

lambda phage DNA
activity (fidelity index) [1]: 16 | activity (fidelity index) [2]: 32 | activity (fidelity index) [3]: 16 | activity (fidelity index) [4]: 250 | activity (fidelity index) [5]: > 16000 | activity (fidelity index) [6]: 16
